Measurements from patent US10357539B2, “Use of peptides that block metadherin-SND1 interaction as treatment for cancer” (THE TRUSTEES OF PRINCETON UNIVERSITY, priority 2014, dated 2019).

T1: SND1 (Homo sapiens, UniProt Q7KZF4)
T1 construct: 15 μg of His-SND1 (16-339) was added to the resin; made in house; host or cells: E. coli DH5α
T1 sequence (Q7KZF4 16-339): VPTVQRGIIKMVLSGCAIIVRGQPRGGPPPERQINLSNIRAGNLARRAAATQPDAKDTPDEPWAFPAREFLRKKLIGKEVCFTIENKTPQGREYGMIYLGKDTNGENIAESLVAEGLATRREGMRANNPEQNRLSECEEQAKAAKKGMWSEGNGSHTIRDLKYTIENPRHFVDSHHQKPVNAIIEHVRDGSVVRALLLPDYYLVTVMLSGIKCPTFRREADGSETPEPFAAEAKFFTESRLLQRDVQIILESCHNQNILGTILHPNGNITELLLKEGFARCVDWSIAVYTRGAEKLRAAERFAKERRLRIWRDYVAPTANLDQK

T2: SND1 (Homo sapiens, UniProt Q7KZF4)
T2 construct: Full-length HA-tagged SND1 was co-expressed with full-length Myc-tagged wild-type (WT) or mutant MTDH in HEK293T cells; expressed in transfected cells; host or cells: HEK293T
T2 sequence (Q7KZF4 1-910): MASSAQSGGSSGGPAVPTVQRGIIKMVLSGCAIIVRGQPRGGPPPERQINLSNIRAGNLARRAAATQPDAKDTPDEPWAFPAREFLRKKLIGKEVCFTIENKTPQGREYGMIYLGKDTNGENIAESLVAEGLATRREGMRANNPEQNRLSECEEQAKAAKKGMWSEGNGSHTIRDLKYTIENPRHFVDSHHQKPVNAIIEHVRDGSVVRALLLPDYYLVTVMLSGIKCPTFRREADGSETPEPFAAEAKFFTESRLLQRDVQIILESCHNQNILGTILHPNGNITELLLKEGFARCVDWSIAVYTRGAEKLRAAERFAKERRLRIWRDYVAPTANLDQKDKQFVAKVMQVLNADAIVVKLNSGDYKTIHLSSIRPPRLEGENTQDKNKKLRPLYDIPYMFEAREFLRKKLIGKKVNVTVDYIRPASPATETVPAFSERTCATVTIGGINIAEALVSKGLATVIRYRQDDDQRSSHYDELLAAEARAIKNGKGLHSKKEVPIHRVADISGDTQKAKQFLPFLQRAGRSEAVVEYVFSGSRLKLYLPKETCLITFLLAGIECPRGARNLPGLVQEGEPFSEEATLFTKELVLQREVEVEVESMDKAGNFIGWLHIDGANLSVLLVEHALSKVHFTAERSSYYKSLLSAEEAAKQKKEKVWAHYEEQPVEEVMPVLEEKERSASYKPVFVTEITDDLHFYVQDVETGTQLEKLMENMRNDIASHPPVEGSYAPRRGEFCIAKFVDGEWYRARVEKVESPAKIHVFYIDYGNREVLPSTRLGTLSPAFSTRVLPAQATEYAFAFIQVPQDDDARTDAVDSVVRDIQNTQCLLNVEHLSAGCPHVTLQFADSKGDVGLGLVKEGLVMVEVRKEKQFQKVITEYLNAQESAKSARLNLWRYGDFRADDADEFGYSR


Experiments:
[1] = biological target: T1, SND1; test: GST-mediated pull-down of SND1 by GST-tagged MTDH fragments and mutants; type: binding; conditions: SND1 (16-339); GST-tagged MTDH (364-582)
From the text: (§1) FIGS. 7A-E represents determination of key regions and residues mediating the MTDH-SND1 interaction. (FIG. 7A) Schematics of MTDH fragments and mutants with indicated SND1-binding capability. + indicates binding and − indicates no binding based on results shown below. Two putative nuclear localization signals are residues 432-451 for NLS2 and residues 561-580 for NLS3. In the enlarged view of the minimal binding region 386-407, 9 residues were targeted for mutagenesis in the current study. […] (FIG. 7B) Pulldown of His6-SND1AC by GST-tagged MTDH fragments with indicated boundaries. The bound proteins were examined by SDS-PAGE and visualized by Coomassie blue staining. (FIG. 7C) Pulldown of His6-SND1ΔC by GST-tagged WT or triple mutant MTDH fragments (364-582). For (FIG. 7B) and (FIG. 7C), 1/10 of the His6-SND1ΔC input was shown, and GST alone was used as a negative control. Representative results of 3 independent experiments are shown. (FIG. 7D, FIG. 7E) Lysates from HEK293T cells expressing the indicated ectopic human SND1, AGO2 or MTDH were immunoprecipitated with anti-Myc and immunoblotted with the indicated antibodies.
(§2) (FIG. 22A) In vitro pull-down of SND1 (16-339) by GST-tagged MTDH (364-582) harboring WT or mutant sequence. The proteins bound to GS4B were examined on SDS-PAGE and visualized by Coomassie blue staining. (FIG. 22B) In vitro pull-down of WT and mutant SND1 (16-339) by GST-tagged MTDH (364-582). The bound proteins were examined as in (FIG. 22A). For both (FIG. 22A) and (FIG. 22B), experiments were repeated three times; representative results are shown. The normalized percentage of binding was averaged from three experiments; mean±SEM was shown below the data. (FIG. 22C) HEK293T cells were transfected with human HA-SND1, WT Myc-MTDH or Myc-MTDH with indicated single point mutation. Lysates were immunoprecipitated with anti-Myc antibody and immunoblotted with the indicated antibodies. (FIG. 22D) HEK293T cells were transfected with human Myc-MTDH, WT HA-SND1 or mutant HA-SND1 with indicated single point mutations or deletions. Lysates were immunoprecipitated with anti-Myc and immunoblotted with the indicated antibodies.
GST-Mediated Pull-Down Assay: ˜20 μg of GST-MTDH (different truncation forms and site mutants) was bound to 10 μl of glutathione resin via GST tag. The resin was washed with 200 μl assay buffer (25 mM Tris, PH8.0, 150 mM NaCl, 3 mM DTT) three times to remove the excess unbound protein. 15 μg of His-SND1 (16-339) was added to the resin in a 100 μl volume suspended in the assay buffer with 2 mg/ml of BSA. The mixture was washed with 200 μl assay buffer twice before examined by SDS-PAGE, and visualized by Coomassie blue staining. The experiments were repeated 3 times and the ratio of SND1 associated with GST-MTDH was analyzed by ImageJ.

[2] = biological target: T2, SND1; test: Co-immunoprecipitation of full-length Myc-MTDH (WT or mutant) and HA-SND1 in HEK293T cells; type: cell-based; conditions: HEK293T cell lysates, immunoprecipitation and immunoblot
From the text: as §1, §2
Immunoprecipitation and western blot For immunoprecipitation (IP) experiments, cultured cells were washed in cold PBS and lysed in lysis buffer (20 mM Tris pH 7.4, 0.15 M NaCl, 1 mM EDTA, 1 mM EGTA, 1% Tx-100, 0.0025 M Na2P2O7, 1 mM α-glycerolphosphate, 1 mM Na3VO4, and 1 mM NaF) with an EDTA-free protease inhibitor mixture (Roche Applied Science) and PMSF. Cell lysates were then incubated on ice for 10 min, centrifuged, and precleared by incubating with protein A/G beads (Santa Cruz Biotechnology) for 1 h at 4° C. For IP bead preparation, 30 μl of protein A/G beads were incubated with 5 μg of antibodies for 2 h at 4° C. IPs were carried out for overnight at 4° C., and beads were centrifuged, washed and subsequently boiled for 5 min in SDS protein loading buffer to elute bound protein. IP lysates were subjected to western blotting with indicated antibodies.
Immunoprecipitation and western blot: For in vivo immunoprecipitation (IP) experiments, cultured cells were washed in cold PBS and lysed in lysis buffer (20 mM Tris pH 7.4, 0.15 M NaCl, 1 mM EDTA, 1 mM EGTA, 1% Tx-100, 0.0025 M Na2P2O7, 1 mM β-glycerolphosphate, 1 mM Na3VO4, and 1 mM NaF) with an EDTA-free protease inhibitor mixture (Roche Applied Science) and PMSF. Cell lysates were then incubated on ice for 10 min, centrifuged, and precleared by incubating with protein A/G beads (Santa Cruz Biotechnology) for 1 h at 4° C. For IP bead preparation, 30 μl of protein A/G beads were incubated with 5 μg of antibodies for 2 h at 4° C. IPs were carried out for overnight at 4° C., and beads were centrifuged, washed and subsequently boiled for 5 min in SDS protein loading buffer to elute bound protein. IP lysates were subjected to western blotting with indicated antibodies.

Molecule	SND1-binding of MTDH (364-582) point mutants, in vitro [1]	interaction of full-length MTDH (WT or mutant) with HA-SND1 [2]
N395A: MTDH mutant N395A (protein, left off: a dimerising Fc or GST) YQWDVSRNQPYIDDEWSGLNGLSSADPNSDWAAPAEEWGNWVDEERASLLKSQEPIPDDQKVSDDDKEKGEGALPTGKSKKKKKKKKKQGEDNSTAQDTEELEKEIREDLPVNTSKTRPKQEKAFSLKTISTSDPAEVLVKNSQPIKTLPPATSTEPSVILSKSDSDKSSSQVPPILQETDKSKSNTKQNSVPPSQTKSETSWESPKQIKKKKKARRET	barely had any effect	
E400A: MTDH mutant E400A (protein, left off: a dimerising Fc or GST) YQWDVSRNQPYIDDEWSGLNGLSSADPNSDWNAPAEAWGNWVDEERASLLKSQEPIPDDQKVSDDDKEKGEGALPTGKSKKKKKKKKKQGEDNSTAQDTEELEKEIREDLPVNTSKTRPKQEKAFSLKTISTSDPAEVLVKNSQPIKTLPPATSTEPSVILSKSDSDKSSSQVPPILQETDKSKSNTKQNSVPPSQTKSETSWESPKQIKKKKKARRET	barely had any effect	
N403A: MTDH mutant N403A (protein, left off: a dimerising Fc or GST) YQWDVSRNQPYIDDEWSGLNGLSSADPNSDWNAPAEEWGAWVDEERASLLKSQEPIPDDQKVSDDDKEKGEGALPTGKSKKKKKKKKKQGEDNSTAQDTEELEKEIREDLPVNTSKTRPKQEKAFSLKTISTSDPAEVLVKNSQPIKTLPPATSTEPSVILSKSDSDKSSSQVPPILQETDKSKSNTKQNSVPPSQTKSETSWESPKQIKKKKKARRET	barely had any effect	
WT MTDH: full-length Myc-tagged wild-type human MTDH (protein, UniProt Q86UE4 1-582, looked up, full-length Myc tag) MAARSWQDELAQQAEEGSARLREMLSVGLGFLRTELGLDLGLEPKRYPGWVILVGTGALGLLLLFLLGYGWAAACAGARKKRRSPPRKREEAAAVPAAAPDDLALLKNLRSEEQKKKNRKKLSEKPKPNGRTVEVAEGEAVRTPQSVTAKQPPEIDKKNEKSKKNKKKSKSDAKAVQNSSRHDGKEVDEGAWETKISHREKRQQRKRDKVLTDSGSLDSTIPGIENTITVTTEQLTTASFPVGSKKNKGDSHLNVQVSNFKSGKGDSTLQVSSGLNENLTVNGGGWNEKSVKLSSQISAGEEKWNSVSPASAGKRKTEPSAWSQDTGDANTNGKDWGRSWSDRSIFSGIGSTAEPVSQSTTSDYQWDVSRNQPYIDDEWSGLNGLSSADPNSDWNAPAEEWGNWVDEERASLLKSQEPIPDDQKVSDDDKEKGEGALPTGKSKKKKKKKKKQGEDNSTAQDTEELEKEIREDLPVNTSKTRPKQEKAFSLKTISTSDPAEVLVKNSQPIKTLPPATSTEPSVILSKSDSDKSSSQVPPILQETDKSKSNTKQNSVPPSQTKSETSWESPKQIKKKKKARRET		pulled down
E400R: MTDH single point mutant E400R (protein, listed as Homo sapiens) MAARSWQDELAQQAEEGSARLREMLSVGLGFLRTELGLDLGLEPKRYPGWVILVGTGALGLLLLFLLGYGWAAACAGSRKKRRSPPRKREEAAAVPAAAPDDLALLKNLRSEEQKKKNRKKLSEKPKPNGRTVEVAEGEAVRTPQSVTAKQPPEIDKKNEKSKKNKKKSKSDAKAVQNSSRHDGKEVDEGAWETKISHREKRQQRKRDKVLTDSGSLDSTIPGIENTITVTTEQLTTASFPVGSKKNKGDSHLNVQVSNFKSGKGDSTLQVSSGLNENLTVNGGGWNEKSVKLSSQISAGEEKWNSVSPASAGKRKAEPSAWSQDTGDANTNGKDWGRSWSDRSIFSGIGSTAEPVSQSTTSDYQWDVSRNQPYIDDEWSGLNGLSSADPNSDWNAPAERWGNWVDEERASLLKSQEPIPDDQKVSDDDKEKGEGALPTGKSKKKKKKKKKQGEDNSTAQDTEELEKEIREDLPVNTSKTRPKQEKAFSLKTISTSDPAEVLVKNSQPIKTLPPATSTEPSVILSKSDSDKSSSQVPPILQETDKSKSNTKQNSVPPSQTKSETSWESPKQIKKKKKARRET	barely had any effect	
